Assay results published in US20190290758A1.

Target: ELAVL4 1-117 with the canonical isoAsp-prone sites N7, N15 and D36 mutated (human)

## recombinant rat repair enzyme protein-L-isoaspartate O-methyltransferase (PIMT) (from UniProt P22062)
  on-blot PIMT-catalyzed methylation with 3H-S-adenosyl methionine: 25%
